How the values were obtained:
Assay in all cases: pull-down
[1] = target: T1, VAL1 (recombinant, pull-down) (Arabidopsis thaliana, UniProt Q8W4L5 1-790)
T1 sequence (looked up): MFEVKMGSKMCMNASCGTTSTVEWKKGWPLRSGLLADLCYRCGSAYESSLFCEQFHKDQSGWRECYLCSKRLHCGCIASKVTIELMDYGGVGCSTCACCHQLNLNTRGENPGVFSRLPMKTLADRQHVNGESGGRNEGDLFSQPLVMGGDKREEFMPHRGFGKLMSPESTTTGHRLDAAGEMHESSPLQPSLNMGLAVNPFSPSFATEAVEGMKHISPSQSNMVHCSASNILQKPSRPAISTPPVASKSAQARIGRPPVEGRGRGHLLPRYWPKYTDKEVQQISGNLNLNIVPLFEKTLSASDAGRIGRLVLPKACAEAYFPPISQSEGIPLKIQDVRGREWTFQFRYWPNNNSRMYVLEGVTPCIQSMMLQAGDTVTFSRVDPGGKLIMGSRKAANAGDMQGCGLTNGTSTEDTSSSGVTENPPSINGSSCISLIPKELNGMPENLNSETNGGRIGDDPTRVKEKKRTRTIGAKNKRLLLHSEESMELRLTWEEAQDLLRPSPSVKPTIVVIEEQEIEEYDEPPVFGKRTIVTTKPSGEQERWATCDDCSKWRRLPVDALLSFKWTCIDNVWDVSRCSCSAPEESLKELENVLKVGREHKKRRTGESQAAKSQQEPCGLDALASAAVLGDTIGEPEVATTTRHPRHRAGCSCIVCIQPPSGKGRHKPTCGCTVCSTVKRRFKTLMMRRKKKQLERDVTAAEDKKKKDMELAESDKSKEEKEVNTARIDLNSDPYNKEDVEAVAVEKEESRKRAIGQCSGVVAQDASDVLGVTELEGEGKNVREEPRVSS

[2] = target: T2, BRM-3 (C-terminal domain of the BAS-type SWI/SNF chromatin remodeler BRM, 1,596-2,193 aa) (Arabidopsis thaliana, UniProt Q6EVK6 1596-2193)
T2 sequence (looked up): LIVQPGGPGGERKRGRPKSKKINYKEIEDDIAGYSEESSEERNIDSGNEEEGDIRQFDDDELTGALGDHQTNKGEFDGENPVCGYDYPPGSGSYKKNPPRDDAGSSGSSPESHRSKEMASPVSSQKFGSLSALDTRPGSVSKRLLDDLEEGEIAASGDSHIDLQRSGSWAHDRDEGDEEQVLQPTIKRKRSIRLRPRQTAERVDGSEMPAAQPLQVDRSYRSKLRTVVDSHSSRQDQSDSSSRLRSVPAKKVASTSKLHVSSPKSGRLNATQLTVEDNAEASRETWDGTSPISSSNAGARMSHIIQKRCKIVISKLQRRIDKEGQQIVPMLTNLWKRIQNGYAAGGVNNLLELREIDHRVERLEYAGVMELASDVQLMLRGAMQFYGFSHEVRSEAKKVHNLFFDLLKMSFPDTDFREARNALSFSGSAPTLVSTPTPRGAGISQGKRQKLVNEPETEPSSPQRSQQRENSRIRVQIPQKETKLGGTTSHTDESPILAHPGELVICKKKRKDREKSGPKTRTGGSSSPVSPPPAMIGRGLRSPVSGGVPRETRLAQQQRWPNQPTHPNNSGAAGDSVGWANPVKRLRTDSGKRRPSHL

[3] = target: T3, UBP5 (H2A deubiquitinase, subunit of the PEAT complex) (Arabidopsis thaliana, UniProt O22207 1-924)
T3 sequence (looked up): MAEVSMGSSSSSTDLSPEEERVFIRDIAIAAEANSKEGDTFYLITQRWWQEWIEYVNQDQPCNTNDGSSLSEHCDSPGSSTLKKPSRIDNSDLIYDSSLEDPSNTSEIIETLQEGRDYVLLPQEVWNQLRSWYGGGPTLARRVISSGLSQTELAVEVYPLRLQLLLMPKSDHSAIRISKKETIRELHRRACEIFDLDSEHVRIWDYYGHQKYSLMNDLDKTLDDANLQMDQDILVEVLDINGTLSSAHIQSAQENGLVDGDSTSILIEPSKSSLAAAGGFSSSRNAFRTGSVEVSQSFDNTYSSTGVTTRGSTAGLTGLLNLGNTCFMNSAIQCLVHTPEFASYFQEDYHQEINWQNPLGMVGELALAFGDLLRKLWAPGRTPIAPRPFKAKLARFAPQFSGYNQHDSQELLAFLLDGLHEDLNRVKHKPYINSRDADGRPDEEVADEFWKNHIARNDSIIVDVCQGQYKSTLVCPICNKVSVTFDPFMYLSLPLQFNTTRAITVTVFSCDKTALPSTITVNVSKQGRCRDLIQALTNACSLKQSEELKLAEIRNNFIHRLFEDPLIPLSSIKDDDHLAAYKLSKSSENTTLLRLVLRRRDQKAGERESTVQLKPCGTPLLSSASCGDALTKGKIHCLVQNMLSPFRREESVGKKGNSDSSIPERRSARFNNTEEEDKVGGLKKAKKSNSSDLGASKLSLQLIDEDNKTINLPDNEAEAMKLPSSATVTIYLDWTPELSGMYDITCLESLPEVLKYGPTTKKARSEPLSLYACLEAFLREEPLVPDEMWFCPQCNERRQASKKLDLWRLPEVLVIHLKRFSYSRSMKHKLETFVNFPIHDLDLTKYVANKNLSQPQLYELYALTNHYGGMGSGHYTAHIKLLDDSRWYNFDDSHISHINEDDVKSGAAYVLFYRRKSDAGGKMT

[4] = target: T4, HDA19 (HDAC catalytic subunit) (Arabidopsis thaliana, UniProt O22446 1-501)
T4 sequence (looked up): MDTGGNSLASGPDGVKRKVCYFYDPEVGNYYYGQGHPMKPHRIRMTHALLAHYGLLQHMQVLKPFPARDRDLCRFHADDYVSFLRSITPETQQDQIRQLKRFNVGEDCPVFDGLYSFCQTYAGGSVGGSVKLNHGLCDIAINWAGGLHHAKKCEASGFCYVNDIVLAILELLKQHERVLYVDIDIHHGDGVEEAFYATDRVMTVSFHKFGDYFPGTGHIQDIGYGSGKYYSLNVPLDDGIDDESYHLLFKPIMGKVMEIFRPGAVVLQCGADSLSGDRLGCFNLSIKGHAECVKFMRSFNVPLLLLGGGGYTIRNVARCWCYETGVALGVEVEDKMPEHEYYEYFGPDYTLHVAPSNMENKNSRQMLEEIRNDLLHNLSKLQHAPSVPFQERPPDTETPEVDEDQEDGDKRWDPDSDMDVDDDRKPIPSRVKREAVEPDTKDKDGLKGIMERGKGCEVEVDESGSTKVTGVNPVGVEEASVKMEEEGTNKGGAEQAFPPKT

[5] = target: T5, MINU2-3 (C-terminal domain of the MAS catalytic enzyme MINU2, 677-1,064 aa) (Arabidopsis thaliana, UniProt F4K128 677-1064)
T5 sequence (looked up): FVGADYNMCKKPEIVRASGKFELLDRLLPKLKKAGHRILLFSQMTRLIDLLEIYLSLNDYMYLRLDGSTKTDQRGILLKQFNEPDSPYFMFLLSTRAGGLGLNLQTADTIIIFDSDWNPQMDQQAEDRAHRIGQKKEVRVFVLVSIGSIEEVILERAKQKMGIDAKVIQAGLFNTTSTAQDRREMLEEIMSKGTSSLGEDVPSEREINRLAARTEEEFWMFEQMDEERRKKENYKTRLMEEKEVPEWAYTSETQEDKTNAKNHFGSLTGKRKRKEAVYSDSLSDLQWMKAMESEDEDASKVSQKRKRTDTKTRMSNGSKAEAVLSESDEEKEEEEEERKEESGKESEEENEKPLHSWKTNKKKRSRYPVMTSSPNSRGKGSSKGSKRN

[6] = target: T6, RING1A (recombinant, pull-down) (Arabidopsis thaliana, UniProt Q9FKW0 1-522)
T6 sequence (looked up): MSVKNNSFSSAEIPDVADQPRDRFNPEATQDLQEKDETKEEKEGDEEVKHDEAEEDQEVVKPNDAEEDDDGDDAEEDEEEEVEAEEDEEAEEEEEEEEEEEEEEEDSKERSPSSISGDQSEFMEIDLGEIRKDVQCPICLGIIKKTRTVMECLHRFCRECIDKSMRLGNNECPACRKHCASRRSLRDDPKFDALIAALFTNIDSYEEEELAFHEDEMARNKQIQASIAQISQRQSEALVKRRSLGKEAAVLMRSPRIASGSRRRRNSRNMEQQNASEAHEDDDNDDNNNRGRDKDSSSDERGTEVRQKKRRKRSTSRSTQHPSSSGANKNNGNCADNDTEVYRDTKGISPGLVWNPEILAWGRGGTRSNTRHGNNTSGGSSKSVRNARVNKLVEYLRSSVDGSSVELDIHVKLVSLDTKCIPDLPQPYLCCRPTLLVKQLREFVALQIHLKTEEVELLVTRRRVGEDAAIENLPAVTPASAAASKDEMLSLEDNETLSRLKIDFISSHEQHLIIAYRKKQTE

[7] = target: T7, AL4 (recombinant, pull-down) (Arabidopsis thaliana, UniProt O81488 1-255)
T7 sequence (looked up): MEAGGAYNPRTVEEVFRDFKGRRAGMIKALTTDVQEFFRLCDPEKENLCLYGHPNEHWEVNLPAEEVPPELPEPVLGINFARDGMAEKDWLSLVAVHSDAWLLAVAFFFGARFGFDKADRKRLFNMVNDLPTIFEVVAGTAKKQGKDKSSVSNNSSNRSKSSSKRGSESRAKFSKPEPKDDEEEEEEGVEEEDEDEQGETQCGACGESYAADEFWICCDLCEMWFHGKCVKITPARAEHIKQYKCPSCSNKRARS

[8] = target: T8, GATA1 (recombinant, pull-down) (Arabidopsis thaliana, UniProt Q8LAU9 1-274)
T8 sequence (looked up): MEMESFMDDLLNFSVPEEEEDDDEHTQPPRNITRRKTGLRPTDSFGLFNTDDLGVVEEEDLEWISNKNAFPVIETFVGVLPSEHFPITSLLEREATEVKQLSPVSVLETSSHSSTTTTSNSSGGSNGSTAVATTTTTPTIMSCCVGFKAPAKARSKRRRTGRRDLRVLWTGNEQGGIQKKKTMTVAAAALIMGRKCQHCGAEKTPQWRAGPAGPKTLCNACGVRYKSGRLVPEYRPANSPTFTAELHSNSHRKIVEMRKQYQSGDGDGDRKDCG

[9] = target: ZF2 (recombinant, pull-down) (Arabidopsis thaliana, UniProt Q9SSW2 1-273)

Measured: binding result

Chain of ZF2 (recombinant, pull-down) (Q9SSW2 whole entry): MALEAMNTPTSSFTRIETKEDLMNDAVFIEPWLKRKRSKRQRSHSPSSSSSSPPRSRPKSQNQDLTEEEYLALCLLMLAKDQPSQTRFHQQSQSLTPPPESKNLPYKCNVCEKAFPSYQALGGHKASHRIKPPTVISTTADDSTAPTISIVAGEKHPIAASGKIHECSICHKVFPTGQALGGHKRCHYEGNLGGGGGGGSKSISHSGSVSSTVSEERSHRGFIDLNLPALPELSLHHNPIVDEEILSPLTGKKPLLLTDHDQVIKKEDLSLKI

B1: AL2 (recombinant, pull-down) (natural protein, Arabidopsis thaliana, UniProt Q9SRM4 1-246, looked up)
chain: MAAAAVSSNPRTVEEIFKDYSARRAALLRALTKDVDDFYSQCDPEKENLCLYGHPNESWEVNLPAEEVPPELPEPALGINFARDGMQRKDWLSLVAVHSDCWLLSVSFYFGARLNRNERKRLFSLINDLPTLFDVVTGRKAMKDNKPSSDSGSKSRNGTKRSIDGQTKSSTPKLMEESYEEEEEEDEHGDTLCGSCGGHYTNEEFWICCDVCERWYHGKCVKITPAKAESIKQYKCPPCCAKKGRQ
binds: [1] | [2] | [3] | [4] | [5] | [6] | [7] | [8] | [9]
